Measured values as given in paper PMC2690590, “Functional recombinant MHC class II molecules and high-throughput peptide-binding assays” (Immunome Research, 2009).

What was measured:
Assay in all cases: AlphaScreen or HTRF
[1] = molecular target: DRB1*0813: DRA*0101/DRB1*0813 (human)
[2] = molecular target: DR2a (DRA*0101/DRB5*0101), biotinylated, direct LOCI assay at pH 6 (human)
[3] = molecular target: DR1GrpE: DR1 α chain 1–181 and β chain 1–190 fused C-terminally to GrpE, not biotinylated (human)
[4] = molecular target: DR2a (DRA*0101/DRB5*0101) with non-biotinylated β chain, competitive LOCI assay (human)

Q: What does the source list for Flu HA1194-202 peptide […]?
A: Kd [1]: 276 nM; Kd [2]: 167 nM; IC50 [3]: 42 nM; IC50 [4]: 529 nM
